{"source": "patent US20250073303A1", "about": "“TDP-43 Interference Peptides, Methods, and Uses Thereof” (The University of British Columbia, priority 2022, published 2025)", "key": {"TDP-43 [1]": {"target": "TDP-43 (Homo sapiens, UniProt Q13148)", "sequence (Q13148 whole entry)": "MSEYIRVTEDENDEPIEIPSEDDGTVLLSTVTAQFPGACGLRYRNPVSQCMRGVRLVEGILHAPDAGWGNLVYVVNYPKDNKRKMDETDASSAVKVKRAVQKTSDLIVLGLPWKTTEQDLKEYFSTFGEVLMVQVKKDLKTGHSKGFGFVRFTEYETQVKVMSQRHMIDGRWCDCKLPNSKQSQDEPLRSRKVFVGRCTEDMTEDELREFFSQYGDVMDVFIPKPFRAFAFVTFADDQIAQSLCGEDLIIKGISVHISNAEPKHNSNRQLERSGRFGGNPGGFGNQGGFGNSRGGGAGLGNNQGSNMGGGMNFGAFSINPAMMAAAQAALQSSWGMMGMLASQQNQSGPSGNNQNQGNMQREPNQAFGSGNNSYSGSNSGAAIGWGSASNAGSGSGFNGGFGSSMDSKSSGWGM", "assay": "Sodium arsenite induced TDP-43 and phosphoTDP-43 accumulation and PARP cleavage in SH-SY5Y cells", "type": "cell-based", "conditions": "1 mM sodium arsenite for 3 hours", "experimental": "FIG. 5. Synthetic peptides derived from CK-1δ block TDP-43 phosphorylation, aggregation and partially rescue cell death in different cellular models. […] DAPI (Blue) staining was used to determine nuclear localization. […] Representative immunoblots showing efficient siRNA knockdown of CK-1δ in SH-SY5Y cells. […] (C) Representative immunoblots showing effective blocking of TDP-43 phosphorylation and aggregation by 20 μM peptide mixture in SH-SY5Y cells, but not in HEK293 cells with ethacrynic acid (EA) treatment. (D) Dose response of peptide mixture on blocking TDP-43 aggregation in primary cultured neurons treated with 20 μM ethacrynic acid. Quantification of insoluble TDP-43 expression was shown on the right. […] The significance among the groups was calculated by one-way ANOVA, *p<0.05. The statistical significance of the difference between scramble peptides and peptide mixture groups was calculated by student's t test, #p<0.05. […] Significant differences among the groups was calculated by One-way ANOVA, *p<0.05. Significance between scramble peptides and peptide mixture group was calculated by student's t test, #p<0.05. (G) Peptide D and the peptide mixture reduces TDP-43 phosphorylation and aggregation in SH-SY5Y cells following sodium arsenite treatment. […] TDP-43, phosphoTDP-43, PARP, and actin in the soluble and insoluble fraction were analyzed by western blotting. […]"}, "TDP-43 [2]": {"target": "T1, TDP-43 (Mus musculus, UniProt Q921F2)", "T1 sequence (Q921F2 whole entry)": "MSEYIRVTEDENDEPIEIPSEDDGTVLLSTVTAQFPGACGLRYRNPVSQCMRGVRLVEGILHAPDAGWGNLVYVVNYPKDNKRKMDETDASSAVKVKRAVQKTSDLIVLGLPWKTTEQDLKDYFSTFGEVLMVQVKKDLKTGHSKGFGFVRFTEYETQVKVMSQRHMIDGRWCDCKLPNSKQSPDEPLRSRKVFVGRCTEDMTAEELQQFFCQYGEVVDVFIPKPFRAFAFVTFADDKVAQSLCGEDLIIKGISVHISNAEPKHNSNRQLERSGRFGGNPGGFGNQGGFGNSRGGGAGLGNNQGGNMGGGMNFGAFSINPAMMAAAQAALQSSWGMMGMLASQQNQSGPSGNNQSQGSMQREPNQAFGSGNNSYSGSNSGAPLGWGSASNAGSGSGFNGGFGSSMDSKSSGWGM", "assay": "Sodium arsenite induced TDP-43 and phosphoTDP43 aggregates in HL-1 cells", "type": "cell-based", "parameters": "endogenous in cells; host or cells: HL-1 cells (cardiomyocytes)", "conditions": "0.05 mM sodium arsenite 16 hours", "experimental": "FIG. 12. Example peptide D reduces TDP-43 and phosphoTDP43 aggregates in HL-1 cells following sodium arsenite treatment. Western blot analysis of protein expression (TDP-43, phosphoTDP-43, PARP and actin) in either soluble or insoluble fractions of HL-1 cells with 16 h treatment of sodium arsenite (0.05 mM).\nIn order to evaluate the function of example peptide D on alleviation of TDP-43 proteinopathies in cardiomyocytes, 0.05 mM of sodium arsenite was employed to treat HL-1 cells for 16 hours to induce TDP-43 and phosphoTDP43 aggregates. […] 20 μM of peptide D treatment in HL-1 cells under the same treatment conditions reduced insoluble aggregates of TDP-43 and phosphoTDP-43."}, "TDP-43 [3]": {"target": "T1, TDP-43", "assay": "LPS (1 mg/kg daily, 7 days) plus sciatic nerve axotomy in mice: TDP-43 aggregation by western blotting", "type": "in vivo", "parameters": "from tissue; host or cells: ventral lumbosacral spinal cord of mice, axotomy side", "conditions": "LPS 1 mg/kg daily i.p. for 7 days plus axotomy; 20 mg/kg i.p.; vs control mice", "experimental": "FIG. 17: Example peptide D reduces TDP-43 aggregates in lumbar spinal cord of mice with sciatic nerve axotomy and 7 days of LPS administration. Mice underwent sciatic nerve axotomy (day 0) and LPS (1 mg/kg, daily, i.p.) administration for 7 days (days 0-7). TDP-43 aggregation in lumbar spinal cord was evaluated by western blotting.\nSince LPS causes systematic inflammation, microglia activation in ventral horn of spinal cord was first detected by staining with an Iba-1 antibody. […] In this setting, motor neuron loss in the lower limb motoneuron group in L5/6 of spinal cord was observed, as confirmed by staining with ChAT and NeuN antibodies. […] TDP-43 and phosphoTDP-43 insolubility in lumbar spinal cord was also confirmed by western blotting."}}, "data": [{"substance": "peptide D: candidate peptide from a CK-1δ binding region for TDP-43, truncated HIV-1 TAT domain added at the N-terminal (YGRKKRRQRRRGFSYDYVFDWNMLK)", "values": [{"measurement": "PARP cleavage caused by sodium arsenite", "setting": "TDP-43 [1]", "result": "less PARP cleavage"}, {"measurement": "insoluble TDP-43 and phosphoTDP-43", "setting": "TDP-43 [1]", "result": "reducing"}, {"measurement": "insoluble aggregates of TDP-43 and phosphoTDP-43", "setting": "TDP-43 [2]; 20 μM peptide", "result": "reduced"}, {"measurement": "PARP cleavage product", "setting": "TDP-43 [2]; treated vs untreated cells", "result": "reduced"}, {"measurement": "TDP-43 aggregation in lumbar spinal cord", "setting": "TDP-43 [3]", "result": "reduced"}]}]}
